Reference: patent US9095624

Target: EGFR receptors of A431 human epidermoid carcinoma cells (human) (UniProt P00533)

For “DTox-HMP-NLS-EGF after refolding (from UniProt P00588 198-384; P24232 1-396; P01133 971-1023)”, the Ka was 5.4e+13 M⁻¹ and the fold increase of affinity after refolding against before refolding was > 2.8 fold.
